# Assay results reported in the RNAGym collection of RNA variant scans (doi:10.7554/elife.80360).
# B1: Hammerhead Ribozyme (parent)
# chain: ACCGGAUGUGCUUUCCGGUCUGAUGAGUCCGUGAGGACGAAACAG
# Variants of: B1
# Assay: self-cleavage, relative activity (ratio to wild type); higher = more cleavage; co-transcriptional
row,Variant,self-cleavage
1,A40U,0.366
2,A40C,0.73
3,A40G,0.4
4,G39U A40C,0.295
5,G39U A40G,0.361
6,G39U A40U,0.307
7,A40G C43A,0.339
8,A40G C43G,0.358
9,A40G C43U,0.268
10,G39U G45U,0.445
11,G39U G45A,0.351
12,G39U G45C,0.408
13,A41U G45U,0.359
14,A41U G45A,0.401
15,A41U G45C,0.392
16,C38U G45U,0.593
17,C38U G45C,0.529
18,C38U G45A,0.689
19,G39U,0.363
20,G39A,0.347
21,G39C,0.455
22,G39C C43G,0.384
23,G39C C43A,0.336
24,G39C C43U,0.368

row,Variant,self-cleavage
1,G39A A42U,0.348
2,G39A A42C,0.369
3,G39A A42G,0.319
4,A40G G45A,0.441
5,A40G G45U,0.421
6,A40G G45C,0.466
7,A40G A41G,0.346
8,A40G A41C,0.341
9,A40G A41U,0.31
10,G39U A44G,0.676
11,G39U A44C,0.417
12,G39U A44U,0.372
13,C38U A44C,0.596
14,C38U A44G,1.44
15,C38U A44U,0.648
16,G39C A42C,0.355
17,G39C A42G,0.279
18,G39C A42U,0.39
19,A40C A42C,0.369
20,A40C A42U,0.427
21,A40C A42G,0.314
22,A41U A42U,0.244
23,A41U A42G,0.35
24,A41U A42C,0.271

row,Variant,self-cleavage
1,A40C A44G,0.69
2,A40C A44C,0.396
3,A40C A44U,0.347
4,A40G A44G,0.571
5,A40G A44U,0.254
6,A40G A44C,0.304
7,A40U A44C,0.474
8,A40U A44U,0.336
9,A40U A44G,0.649
10,A40U C43A,0.344
11,A40U C43U,0.336
12,A40U C43G,0.287
13,C38U A40G,0.37
14,C38U A40U,0.348
15,C38U A40C,0.598
16,A41G G45U,0.407
17,A41G G45C,0.402
18,A41G G45A,0.25
19,A41C A42C,0.375
20,A41C A42U,0.235
21,A41C A42G,0.276
22,A40C G45A,0.431
23,A40C G45C,0.399
24,A40C G45U,0.431

row,Variant,self-cleavage
1,G39C A40C,0.306
2,G39C A40G,0.331
3,G39C A40U,0.296
4,G39A C43G,0.264
5,G39A C43U,0.341
6,G39A C43A,0.284
7,A42C A44C,0.262
8,A41G A42C,0.294
9,A41G A42U,0.335
10,A41G A42G,0.335
11,C38U G39A,0.363
12,C38U G39U,0.3
13,C38U G39C,0.584
14,G39C A41U,0.305
15,G39C A41C,0.351
16,G39C A41G,0.328
17,A41C C43G,0.408
18,A41C C43U,0.316
19,A41C C43A,0.361
20,G39U A41U,0.326
21,G39U A41G,0.327
22,G39U A41C,0.368
23,A41G A44G,0.692
24,A41G A44C,0.391

row,Variant,self-cleavage
1,A41G A44U,0.322
2,C38U A42U,0.317
3,C38U A42G,0.34
4,C38U A42C,0.396
5,A40C C43A,0.299
6,A40C C43U,0.347
7,A40C C43G,0.33
8,A40C A41U,0.441
9,A40C A41C,0.385
10,A40C A41G,0.307
11,C38U C43G,0.321
12,C38U C43U,0.34
13,C38U C43A,0.414
14,A40U G45A,0.343
15,A40U G45U,0.398
16,A40U G45C,0.458
17,A40U A41C,0.275
18,A40U A41U,0.439
19,A40U A41G,0.27
20,G39A A44U,0.342
21,G39A A44C,0.39
22,G39A A44G,0.718
23,A40G A42G,0.312
24,A40G A42C,0.266

row,Variant,self-cleavage
1,A40G A42U,0.253
2,A41C G45C,0.336
3,A41C G45U,0.41
4,A41C G45A,0.39
5,A41U A44C,0.377
6,A41U A44G,0.759
7,A41U A44U,0.378
8,G39A A41G,0.383
9,G39A A41U,0.293
10,G39A A41C,0.341
11,C38U A41C,0.32
12,C38U A41U,0.453
13,C38U A41G,0.352
14,A41C A44C,0.436
15,A41C A44G,0.594
16,A41C A44U,0.3
17,G39U A42G,0.342
18,G39U A42U,0.39
19,G39U A42C,0.353
20,A41U,0.393
21,A41G,0.345
22,A41C,0.376
23,A40U A42U,0.367
24,A40U A42G,0.261

row,Variant,self-cleavage
1,A40U A42C,0.369
2,A41G C43A,0.317
3,A41G C43G,0.346
4,A41G C43U,0.366
5,G39U C43G,0.298
6,G39U C43A,0.312
7,G39U C43U,0.371
8,G39A G45U,0.372
9,G39A G45A,0.371
10,G39A G45C,0.421
11,A42C,0.373
12,G39A A40G,0.383
13,G39A A40C,0.387
14,G39A A40U,0.291
15,A41U C43A,0.321
16,A41U C43G,0.332
17,A41U C43U,0.362
18,G39C G45C,0.368
19,G39C G45U,0.328
20,G39C G45A,0.359
21,G39C A44U,0.415
22,G39C A44G,0.638
23,G39C A44C,0.437
